Test results taken from PMC4754349, “Tripartite assembly of RND multidrug efflux pumps” (Nature Communications, 2016).

B1: OprM reconstituted into nanodiscs (OprM–ND) (natural protein)
chain: CSLIPDYQRPEAPVAAAYPQGQAYGQNTGAAAVPAADIGWREFFRDPQLQQLIGVALENNRDLRVAALNVEAFRAQYRIQRADLFPRIGVDGSGTRQRLPGDLSTTGSPAISSQYGVTLGTTAWELDLFGRLRSLRDQALEQYLATEQAQRSAQTTLVASVATAYLTLKADQAQLQLTKDTLGTYQKSFDLTQRSYDVGVASALDLRQAQTAVEGARATLAQYTRLVAQDQNALVLLLGSGIPANLPQGLGLDQTLLTEVPAGLPSDLLQRRPDILEAEHQLMAANASIGAARAAFFPSISLTANAGTMSRQLSGLFDAGSGSWLFQPSINLPIFTAGSLRASLDYAKIQKDINVAQYEKAIQTAFQEVADGLAARGTFTEQLQAQRDLVKASDEYYQLADKRYRTGVDNYLTLLDAQRSLFTAQQQLITDRLNQLTSEVNLYKALGGGWNQQTVTQQQTAKKEDPQA
notes: OprM, outer membrane factor of Pseudomonas aeruginosa; called native; One trimer in each nanodisc (POPC, MSP1D1); also called OMF; source: E. coli C43ΔacrB, purified (HisTrap HP, gel filtration Superose 6), reconstituted into POPC/MSP1D1 nanodiscs
B2: lipidated MexA (natural protein)
chain: CGKSEAPPPAQTPEVGIVTLEAQTVTLNTELPGRTNAFRIAEVRPQVNGIILKRLFKEGSDVKAGQQLYQIDPATYEADYQSAQANLASTQEQAQRYKLLVADQAVSKQQYADANAAYLQSKAAVEQARINLRYTKVLSPISGRIGRSAVTEGALVTNGQANAMATVQQLDPIYVDVTQPSTALLRLRRELASGQLERAGDNAAKVSLKLEDGSQYPLEGRLEFSEVSVDEGTGSVTIRAVFPNPNNELLPGMFVHAQLQEGVKQKAILAPQQGVTRDLKGQATALVVNAQNKVELRVIKADRVIGDKWLVTEGLNAGDKIITEGLQFVQPGVEVKTVPAKNVASAQKADAAPAKTDSKG
modifications: lipidated (palmitoylation of an N-terminal cysteinyl residue)
notes: MexA, periplasmic membrane fusion protein of Pseudomonas aeruginosa, native lipidated form, 39 kDa monomer; also called native lipid-modified MFP; source: E. coli C43ΔacrB, purified (HisTrap HP, gel filtration Superose 6), in 0.03% DDM
B3: MexB reconstituted into nanodiscs (MexB–ND) (natural protein)
chain: MSKFFIDRPIFAWVIALVIMLAGGLSILSLPVNQYPAIAPPAIAVQVSYPGASAETVQDTVVQVIEQQMNGIDNLRYISSESNSDGSMTITVTFEQGTDPDIAQVQVQNKLQLATPLLPQEVQRQGIRVTKAVKNFLMVVGVVSTDGSMTKEDLSNYIVSNIQDPLSRTKGVGDFQVFGSQYSMRIWLDPAKLNSYQLTPGDVSSAIQAQNVQISSGQLGGLPAVKGQQLNATIIGKTRLQTAEQFENILLKVNPDGSQVRLKDVADVGLGGQDYSINAQFNGSPASGIAIKLATGANALDTAKAIRQTIANLEPFMPQGMKVVYPYDTTPVVSASIHEVVKTLGEAILLVFLVMYLFLQNFRATLIPTIAVPVVLLGTFGVLAAFGFSINTLTMFGMVLAIGLLVDDAIVVVENVERVMAEEGLSPREAARKSMGQIQGALVGIAMVLSAVFLPMAFFGGSTGVIYRQFSITIVSAMALSVIVALILTPALCATMLKPIEKGDHGEHKGGFFGWFNRMFLSTTHGYERGVASILKHRAPYLLIYVVIVAGMIWMFTRIPTAFLPDEDQGVLFAQVQTPPGSSAERTQVVVDSMREYLLEKESSSVSSVFTVTGFNFAGRGQSSGMAFIMLKPWEERPGGENSVFELAKRAQMHFFSFKDAMVFAFAPPSVLELGNATGFDLFLQDQAGVGHEVLLQARNKFLMLAAQNPALQRVRPNGMSDEPQYKLEIDDEKASALGVSLADINSTVSIAWGSSYVNDFIDRGRVKRVYLQGRPDARMNPDDLSKWYVRNDKGEMVPFNAFATGKWEYGSPKLERYNGVPAMEILGEPAPGLSSGDAMAAVEEIVKQLPKGVGYSWTGLSYEERLSGSQAPALYALSLLVVFLCLAALYESWSIPFSVMLVVPLGVIGALLATSMRGLSNDVFFQVGLLTTIGLSAKNAILIVEFAKELHEQGKGIVEAAIEACRMRLRPIVMTSLAFILGVVPLAISTGAGSGSQHAIGTGVIGGMVTATVLAIFWVPLFYVAVSTLFKDEASKQQASVEKGQ
notes: MexB, inner membrane RND transporter of Pseudomonas aeruginosa; called native; One trimer in each nanodisc (POPC, MSP1E3D1); also called RND; source: E. coli C43ΔacrB, purified (HisTrap HP, gel filtration Superose 6), reconstituted into POPC/MSP1E3D1 nanodiscs

What was measured:
[1] = target: the molecule itself; test: negative-stain electron microscopy, single-particle analysis; nanodisc-reconstituted RND and OMF mixed with lipidated MFP (1:1:10, or SEC-purified complex), stained with 2% uranyl acetate on carbon-coated grids; reference-free two-dimensional class averages (SPIDER)
[2] = target: B3; test: native gel or EMSA; native PAGE, 4–15% gradient gel, Tris-Glycine running buffer, silver stained; nanodisc-reconstituted MexB and OprM mixed 1:1, with or without lipidated MexA (1:1:10 molar ratio); details: both partners purified
[3] = target: B1; test: as above; details: both partners purified

Binder | binding result [1] | binding result [2] | binding result [3]
B1 | binds |  | 
B2 |  | binds | binds
B3 | binds |  | 
